Series [1] concerns overnight abstinent smokers. The series can be described thus: Blood measurements: insulin, glucose, C-peptide, non-esterified fatty acids (Example 1). It counts as in vivo, human. The method, then:
Blood measurements: Blood samples were analyzed for measurements of insulin, glucose, C-peptide, and non-esterified fatty acids.
Serum insulin was analyzed on the Immulite 1000 immunoassay system (Siemens Healthcare GmbH, Erlangen, Germany). This is a solid-phase, enzyme-labeled chemiluminescent immunometric assay. The solid phase (bead) was coated with monoclonal murine anti-insulin antibody. The liquid phase consisted of alkaline phosphatase (bovine calf intestine) conjugated to polyclonal sheep anti-insulin antibody and alkaline phosphatase (bovine calf intestine) conjugated to monoclonal murine anti-insulin antibody. The patient sample and the reagent were incubated together with the coated bead for 60 minutes. During this time, insulin in the sample forms the antibody sandwich complex with the monoclonal murine anti-insulin antibody on the bead, enzyme conjugated polyclonal sheep anti-insulin antibody, and enzyme conjugated monoclonal murine anti-insulin antibody in the reagent. Unbound patient sample and enzyme conjugate were then removed by centrifugal washes. Finally, chemiluminescent substrate was added to the test unit containing the bead and the signal is generated in proportion to the bound enzyme.
Serum glucose was performed on the ACE ALERA system (Alfa Wassermann Diagnostic Technologies, S.p.A., Bologna, Italy). An increase in absorbance of NADH is directly proportional to glucose concentration, and was measured bichromatically at 340 nm/378 nm.
Serum C-peptide was performed on the Immulite 1000 immunoassay system (Siemens Healthcare GmbH, Erlangen, Germany). This is a solid-phase, two-site chemiluminescent immunometric assay. The solid phase (bead) is coated with monoclonal murine anti-C-peptide antibody. The liquid phase consists of alkaline phosphatase (bovine calf intestine) conjugated to monoclonal murine anti-C-peptide antibody in buffer. The patient sample and the reagent were incubated together with the coated bead for 30 minutes. During this time, C-peptide in the sample forms the antibody sandwich complex with monoclonal murine anti-C-peptide antibody in the reagent. Unbound patient sample and enzyme conjugate were then removed by centrifugal washes. Finally, chemiluminescent substrate was added to the Test Unit containing the bead and the signal is generated in proportion to the bound enzyme.
Blood samples were collected at 12:20, 13:00, 13:40, and 14:10 and analyzed for non-esterified fatty acids using an AU 480 chemistry analyzer (Beckman Coulter, Inc., Brea, Calif.) using a NEFA-HR(2) kit (Wako Chemicals USA, Inc., Cape Charles, Va.).
Random coefficient models were constructed for analyzing subjective (i.e., craving and mood), blood (insulin, glucose, C-peptide and nonesterified fatty acids) and cardiovascular (blood pressure) measures. For every model, an evaluation of non-linear term was performed, and, if significance was detected, that polynomial term for time was included in the model. Treatment, time and treatment by time interaction were included as fixed effects. Time nested within subjects was included as a random effect. If an interaction was detected, post hoc comparisons were performed comparing treatment groups at each time point. Cortisol was log-transformed for the purpose of normalizing distribution. The summary measure for cortisol analysis was peak change from baseline. […] Significance values are reported as detected; no adjustments were made for multiple comparisons.

In series [2] the test system is smokers, 36 hours of smoking abstinence. The series can be described thus: Post-spray symptom-specific subjective ratings (0-10) of pain, burn, taste (Example 2). It counts as in vivo, human. The method, then:
Additional outcome measures included safety measures, i.e., post-spray symptom-specific subjective ratings and adverse events. Post-spray symptom-specific subjective ratings (0-10) of burn, pain, cough, and taste were collected after each spray round. Administration instructions were one spray in each nostril every three minutes for the total of six sprays. […] Adverse events were recorded and collected following the completion of every session as well as completion of the entire study.
Placebo contained 8.7% NaCl. Per FDA approved protocol, the product was prepared in a biosafety cabinet of UNM Translational Radiopharmacy. Drug Preparation occurred 30 minutes before administration. […] or placebo was placed in a 10 mL amber glass bottle (Gerresheimer AG, Düsseldorf, Germany), which was capped with a 10 mg sterile nasal pump (Aero Pump GmbH, Hochheim, Germany). Assembled product was primed per manufacturer's recommendations before 0.6 ml volume was administered to study participants. In a randomized fashion, study nurse administered one spray in each nostril every three minutes for the total of six sprays of either insulin or placebo. As each spray delivers 0.1 ml of fluid, and the concentration of insulin in Novolin R is 100 IU/mL, administering six sprays delivers 60 IU of insulin.
Random coefficient models were constructed for analyzing study outcomes. Treatment, time, treatment by time interaction, and sequence were included as fixed effects. Time nested within subjects, and time nested within treatment nested within subjects were included as random effects. Adverse events are presented in a descriptive fashion. No adjustment for multiple tests was made; all p values are reported at their nominal level.

The conditions of series [3]: cited from earlier work.
Where [4] appears, read: vs 8.7% NaCl placebo, scale 0-10, three spray rounds, p≤0.05.

“Also recorded” adds a separate entry of the source.

For “intranasal insulin: bulk human Regular insulin (U100 Novolin R, Novo Nordisk US), 100 IU/ml, six nasal sprays delivering 60 IU”, in series [1] (60 IU intranasal vs placebo), the “Glucose, effect of treatment” value is on record as “did not differ; also recorded: subjects remained well within euglycemic range; also recorded: minor decline in plasma glucose concentrations” and the “Serum (circulating) insulin levels, effect of treatment” value was “did not differ; also recorded: no detection of treatment effects; also recorded: no significant changes in circulating insulin”. The “Serum insulin, treatment×time interaction, b” value in series [1] (SE(b)=0.01, z=−0.37, p=0.71, non-significant) is given as −0.005. Moreover, in series [1] (SE(b)=0.02, z=2.60, p≤0.01), the “Glucose, treatment×time interaction, b” value stood at 0.05. For the same substance, the “Glucose, treatment, b” value in series [1] (SE(b)=2.55, z=−1.06, p=0.28) is on record as −2.72. In addition, the ““taste” rating, interaction with treatment, b” value in series [2] (SE(b)=0.10, z=−0.75, p=0.45, not significant) is recorded as −0.07. In addition, the ““pain” rating, treatment×spray number, b” value in series [2] (SE(b)=0.16, z=−0.47, p=0.63) is −0.07. Besides, the ““burn” rating, interaction with treatment, b” value in series [2] (SE(b)=0.17, z=1.23, p=0.22, not significant) amounted to 0.21. Besides, the ““pain” rating, treatment, b” value in series [2] (SE(b)=0.31, z=−1.17, p=0.24) is given as −0.36. Besides, in series [2] (SE(b)=0.43, z=−2.34, p≤0.05), the ““burn” rating, treatment, b” value is on record as −1.01. The “Subjective spray rating of “pain”, effect of treatment” value in series [2] (vs 8.7% NaCl placebo, scale 0-10, three spray rounds) is listed as “No group differences were detected”. For the same substance, in series [2] (setting [4]), the “Subjective spray rating of “burn”, effect of treatment” value is reported as “Main effect of treatment was significant; also recorded: There was an effect of treatment” and the “Subjective spray rating of “taste”, effect of treatment” value is on record as “Main effect of treatment was significant; also recorded: there was an effect of treatment”. Further, the “Subjective spray rating of “burn”, effect of treatment” value in series [2] (vs 8.7% NaCl placebo, scale 0-10, three spray rounds, p≤0.05, listed as Intranasal insulin) was “notable burning sensation”. For the same substance, in series [3] (humans), the “CSF insulin levels and peripheral insulin levels after intranasal administration” value is recorded as “increases CSF insulin levels without changing peripheral insulin levels”. For the same substance, in series [3] (intranasal route), the “Time to reach the CSF” value is recorded as “within minutes”.

(Values after US20190201494A1, “COMPOSITIONS AND METHODS FOR TREATING NICOTINE WITHDRAWAL” (STC UNM, priority 2016, published 2019).)
